Read-outs that look alike come from different tables or passages of the source.
Columns and labels:
[1] = target: ProTα E56C/D110C labeled with Alexa Fluors 488 and 594 (human) (UniProt P06454); assay: FRET or BRET
[2] = target: ProTα-H1 dimer (PH) of labeled ProTα E56C/D110C and unlabeled H1 (human) (UniProt P06454); assay: FRET or BRET
[3] = target: prothymosin α (unlabeled) (human) (UniProt P06454); assay: ITC
[4] = target: prothymosin α (unlabeled) (human) (UniProt P06454); assay: ITC; remark: listed apart in the source
[5] = target: ProTα-H1 dimer (PH) of labeled ProTα E56C/D110C and unlabeled H1 (human) (UniProt P06454); assay: FRET or BRET; remark: listed apart in the source
[6] = target: ProTα E56C/D110C labeled with Alexa Fluors 488 and 594 (human) (UniProt P06454); assay: FRET or BRET; remark: listed apart in the source
[7] = target: ProTα-H1 dimer (PH) of unlabeled ProTα and unlabeled H1 (human) (UniProt P06454); assay: FRET or BRET

In the case of “linker histone H1 (from UniProt P07305 1-194) (natural protein)”, the Kd [1] is reported as 1.2 nM, the Kd [2] is reported as 13000 nM and the dH [3] is reported as 8.37 kcal/mol. It also gave a dH [4] of 13.9 kcal/mol, a Kd [5] of 120 nM and a Kd [6] of 0.92 nM.

B1: prothymosin α (unlabeled) (natural protein)
chain: MSDAAVDTSSEITTKDLKEKKEVVEEAENGRDAPANGNAENEENGEQEADNEVDEEEEEGGEEEEEEEEGDGEEEDGDEDEEAESATGKRAAEDDEDDDVDTKKQKTDEDD
B1 gave a Kd [7] of 3000 nM.

From publication PMC10576128
